Results as given in patent publication US11965032 (TG THERAPEUTICS, dated 2024).

Assays:
[1] = target: T1, FcγIIIA Receptor on the effector cells (human, UniProt P08637 17-254); assay: cell-based or functional assay
[2] = target: C1q in the complement system (rabbit serum as the source of complement) (rabbit); assay: cell-based or functional assay
[3] = target: T1, FcγIIIA Receptor on the effector cells; assay: cell-based or functional assay; remark: listed apart in the source
[4] = target: T2, FcγRIIIA V158 (human Fc receptor panel, Octet) (human, UniProt P08637 17-208); assay: BLI (Octet HTX), receptor on anti-penta-His biosensor, 1:1 model
T2 construct: Captured on anti-penta-His biosensors, so it carries a His tag; It is kept apart from the SPR receptor because the constructs may differ; also called FcγRIIIa 158V
T2 sequence (P08637 17-208 F176V limits assumed): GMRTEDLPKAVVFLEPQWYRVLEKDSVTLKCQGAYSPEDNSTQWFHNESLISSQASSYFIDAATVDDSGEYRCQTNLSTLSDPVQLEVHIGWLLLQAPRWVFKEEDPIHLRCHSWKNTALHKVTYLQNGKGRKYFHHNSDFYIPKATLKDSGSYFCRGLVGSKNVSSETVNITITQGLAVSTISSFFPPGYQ
Description: (§1) This analysis was performed by LakePharma. Binding characterization were carried out on Octet HTX instrument at 25° C. Human Fc receptor panel were loaded onto Anti-Penta His (H1S1K) biosensors. Loaded sensors were dipped into a serial dilutions of the testing samples (300 nM start, 1:3 dilution, 7 points). Kinetic constants were calculated using a monovalent (1:1) binding model.

[5] = target: T3, FcγRIIB/C (human Fc receptor panel, Octet) (human, UniProt P31994 46-217, limits assumed); assay: as above
T3 construct: Captured on anti-penta-His biosensors, so it carries a His tag
T3 sequence (looked up): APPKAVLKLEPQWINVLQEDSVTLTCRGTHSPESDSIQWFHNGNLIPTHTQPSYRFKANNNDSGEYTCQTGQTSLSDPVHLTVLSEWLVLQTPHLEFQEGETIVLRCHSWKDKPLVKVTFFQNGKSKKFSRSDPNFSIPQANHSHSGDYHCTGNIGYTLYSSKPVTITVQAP
Description: as §1

[6] = target: T4, FcγRIIIB (human Fc receptor panel, Octet) (human, UniProt O75015 17-200); assay: as above
T4 construct: Captured on anti-penta-His biosensors, so it carries a His tag
T4 sequence (O75015 17-200 limits assumed): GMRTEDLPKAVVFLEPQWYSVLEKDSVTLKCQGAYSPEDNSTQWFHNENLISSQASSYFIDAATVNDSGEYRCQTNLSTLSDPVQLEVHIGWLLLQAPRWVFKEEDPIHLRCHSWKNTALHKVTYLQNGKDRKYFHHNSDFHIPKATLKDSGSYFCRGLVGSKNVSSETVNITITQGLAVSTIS
Description: as §1

[7] = target: T5, FcγRIIA (human Fc receptor panel, Octet) (human, UniProt P12318 36-218, limits assumed); assay: as above
T5 construct: Captured on anti-penta-His biosensors, so it carries a His tag
T5 sequence (looked up): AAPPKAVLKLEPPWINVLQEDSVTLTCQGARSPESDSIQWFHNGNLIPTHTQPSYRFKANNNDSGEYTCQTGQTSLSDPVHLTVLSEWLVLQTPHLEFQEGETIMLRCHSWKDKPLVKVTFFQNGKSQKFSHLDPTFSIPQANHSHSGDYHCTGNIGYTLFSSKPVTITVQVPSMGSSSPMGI
Description: as §1

[8] = target: T6, FcγRIIIA F158 (human Fc receptor panel, Octet) (human, UniProt P08637 17-208); assay: as above
T6 construct: Captured on anti-penta-His biosensors, so it carries a His tag; It is kept apart from the SPR receptor because the constructs may differ
T6 sequence (P08637 17-208 limits assumed): as the sequence (P08637 17-208 F176V limits assumed) above, with V160F counted along it
Description: as §1

[9] = target: T7, FcRn (human Fc receptor panel, Octet) (human, UniProt P55899 24-297; P61769 21-119); assay: as above
T7 construct: Captured on anti-penta-His biosensors, so it carries a His tag
T7 sequence (P55899 24-297 limits assumed, chain 1 of 2): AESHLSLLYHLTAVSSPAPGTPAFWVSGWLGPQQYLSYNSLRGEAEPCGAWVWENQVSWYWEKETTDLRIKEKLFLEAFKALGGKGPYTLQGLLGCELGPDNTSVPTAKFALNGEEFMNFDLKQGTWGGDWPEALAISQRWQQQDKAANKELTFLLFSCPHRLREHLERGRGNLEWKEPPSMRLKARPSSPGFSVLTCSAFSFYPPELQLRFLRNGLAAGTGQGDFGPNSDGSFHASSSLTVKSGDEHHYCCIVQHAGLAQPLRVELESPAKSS
T7 sequence (P61769 21-119 limits assumed, chain 2 of 2): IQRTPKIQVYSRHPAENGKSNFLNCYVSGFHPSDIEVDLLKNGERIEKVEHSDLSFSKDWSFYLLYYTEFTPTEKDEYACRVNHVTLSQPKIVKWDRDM
Description: as §1

[10] = target: T8, FcγRI (human Fc receptor panel, Octet) (human, UniProt P12314 16-288, limits assumed); assay: as above
T8 construct: Captured on anti-penta-His biosensors, so it carries a His tag
T8 sequence (P12314 16-288 limits assumed): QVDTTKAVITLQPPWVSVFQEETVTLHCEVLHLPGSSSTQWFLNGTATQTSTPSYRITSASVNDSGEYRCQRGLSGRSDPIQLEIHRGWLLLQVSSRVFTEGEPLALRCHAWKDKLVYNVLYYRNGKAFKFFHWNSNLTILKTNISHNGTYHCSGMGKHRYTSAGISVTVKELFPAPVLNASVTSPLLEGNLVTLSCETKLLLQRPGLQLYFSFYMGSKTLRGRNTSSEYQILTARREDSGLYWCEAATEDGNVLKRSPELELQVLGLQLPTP
Description: as §1

[11] = target: T9, CD20 on Jeko-1, Raji and Daudi cells (human, UniProt P11836 1-297); assay: cell-based MSD electrochemiluminescence binding assay on CD20 expressing Jeko-1 cells
T9 construct: whole, on cells; also called cell surface CD20
T9 sequence (looked up): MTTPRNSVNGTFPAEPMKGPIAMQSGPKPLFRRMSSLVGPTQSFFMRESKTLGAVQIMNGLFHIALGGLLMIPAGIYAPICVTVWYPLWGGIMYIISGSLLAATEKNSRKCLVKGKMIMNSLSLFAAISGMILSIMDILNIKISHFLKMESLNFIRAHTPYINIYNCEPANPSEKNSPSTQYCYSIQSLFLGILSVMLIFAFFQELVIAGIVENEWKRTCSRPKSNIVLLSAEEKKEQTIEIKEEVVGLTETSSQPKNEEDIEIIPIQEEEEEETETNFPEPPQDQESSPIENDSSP

[12] = target: T10, FcγRIIIa 158F receptor (SPR assay) (UniProt P08637 17-208, limits assumed); assay: SPR, receptor immobilised
T10 construct: Immobilised on the SPR chip by amine coupling
T10 sequence (P08637 17-208 limits assumed): as the sequence (P08637 17-208 F176V limits assumed) above, with V160F counted along it
Description: (§2) The method follows a direct binding assay methodology where the FcγRIIIa receptor is directly immobilized onto the flow cell on a sensor chip surface and samples are injected over the chip to assess binding. […] Independent duplicates of sample dilutions are injected over the chip, followed by surface regeneration between each cycle. The binding is measured in response units (RU). The kinetics of the binding reaction is determined by measuring changes in SPR due to the increase in mass in the close proximity to the biosensor chip surface. Change in the mass of the complex as a function of time is visualized as a sensorgram.
(§3) The equilibrium dissociation constants (K_D) of each sample is determined for each receptor.

[13] = target: T11, FcγRIIIa 158V receptor (SPR assay) (UniProt P08637 17-208, limits assumed); assay: SPR, receptor immobilised
T11 construct: Immobilised on the SPR chip by amine coupling; The 158V allotype uses mature numbering
T11 sequence (P08637 17-208 F176V limits assumed): as the sequence (P08637 17-208 F176V limits assumed) above
Description: as §2, §3

[14] = target: T9, CD20 on Jeko-1, Raji and Daudi cells; assay: flow cytometry (FACS) on Raji cells, PE conjugated anti-human secondary antibody
Description: (§4) A six-point dilution series of the samples, in duplicates and in the concentration range of 40 μg/ml-0 ug/ml with a dilution factor of 5 were used. Cells were incubated with sample dilutions; binding was detected using a PE conjugated anti-human secondary antibody.

[15] = target: T1, FcγIIIA Receptor on the effector cells; assay: cell-based or functional assay; remark: listed apart in the source
[16] = target: T9, CD20 on Jeko-1, Raji and Daudi cells; assay: flow cytometry (FACS) on Daudi cells, PE conjugated anti-human secondary antibody; Daudi cells
Description: as §4

HRP conjugated human C1q [17] = target: T12, HRP conjugated human C1q (human, UniProt P02745 23-245; P02746 28-253; P02747 29-245, peroxidase (HRP) conjugated; site not stated); assay: ELISA, antibody coated on the plate, HRP conjugated human C1q
T12 construct: also called Peroxidase conjugated C1q
T12 sequence (P02745 23-245 limits assumed, chain 1 of 3): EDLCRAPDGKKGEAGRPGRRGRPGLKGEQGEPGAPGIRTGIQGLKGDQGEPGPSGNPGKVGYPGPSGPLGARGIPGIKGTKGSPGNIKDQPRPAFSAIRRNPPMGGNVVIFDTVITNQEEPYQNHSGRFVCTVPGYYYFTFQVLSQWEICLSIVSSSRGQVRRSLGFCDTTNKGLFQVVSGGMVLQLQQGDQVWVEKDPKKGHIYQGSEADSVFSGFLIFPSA
T12 sequence (P02746 28-253 limits assumed, chain 2 of 3): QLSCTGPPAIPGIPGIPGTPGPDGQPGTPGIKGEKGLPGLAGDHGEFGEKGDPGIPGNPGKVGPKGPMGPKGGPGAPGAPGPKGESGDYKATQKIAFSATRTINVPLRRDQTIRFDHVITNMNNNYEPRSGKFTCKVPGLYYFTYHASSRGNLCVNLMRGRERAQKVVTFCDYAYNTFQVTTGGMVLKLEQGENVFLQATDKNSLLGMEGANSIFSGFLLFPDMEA
T12 sequence (P02747 29-245 limits assumed, chain 3 of 3): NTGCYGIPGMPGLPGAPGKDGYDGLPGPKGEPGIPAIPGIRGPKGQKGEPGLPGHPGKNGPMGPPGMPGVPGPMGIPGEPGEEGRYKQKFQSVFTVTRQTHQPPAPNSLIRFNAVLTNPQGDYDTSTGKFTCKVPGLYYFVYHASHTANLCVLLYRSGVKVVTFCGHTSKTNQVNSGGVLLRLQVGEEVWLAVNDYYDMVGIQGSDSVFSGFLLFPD
Description: (§5) The C1q binding assay used for this analysis is an ELISA assay. Samples were coated on ELISA plates, HRP conjugated human C1q is incubated with samples on the plate. The bound HRP, in the presence of substrate TMB, generates a colorimetric signal. […] Sample dilutions are coated onto ELISA plates, and the plates incubated for 1 hour±30 min at room temperature. After coating, the plates are washed, blocked, and washed again. Peroxidase conjugated C1q was added, and the plates incubated for 1.5 hours±30 minutes at room temperature. After incubation and washing, a tetramethylbenzidine (TMB) substrate solution was added and plates incubated at room temperature for 7 minutes (~1 min/+30 seconds). This produces a colorimetric reaction which is proportional to the level of C1q bound. The reaction is stopped with the addition of 1M sulfuric acid and the color is measured at 450 nm using a Molecular Devices SPECTRAMAX® microplate reader. SOFTMAX® PRO is used to analyze the data with weighted nonlinear regression using a 4-parameter logistic fit. […] EC50 of each test sample, based on the 4-parameter logistic fitted curve, were generated for additional information.

HRP conjugated human C1q [18] = target: T12, HRP conjugated human C1q; assay: ELISA: antibody dilutions coated on the plate, HRP conjugated human C1q added, TMB, OD 450
Description: as §5

[19] = target: T10, FcγRIIIa 158F receptor (SPR assay); assay: SPR, receptor amine-coupled to the chip, antibody injected, steady state affinity; average of 4 values
Description: as §2, §3

[20] = target: T11, FcγRIIIa 158V receptor (SPR assay); assay: SPR, receptor amine-coupled to the chip, antibody injected, 1:1 kinetics; average of 4 values
Description: as §2, §3

T1 sequence (P08637 17-254): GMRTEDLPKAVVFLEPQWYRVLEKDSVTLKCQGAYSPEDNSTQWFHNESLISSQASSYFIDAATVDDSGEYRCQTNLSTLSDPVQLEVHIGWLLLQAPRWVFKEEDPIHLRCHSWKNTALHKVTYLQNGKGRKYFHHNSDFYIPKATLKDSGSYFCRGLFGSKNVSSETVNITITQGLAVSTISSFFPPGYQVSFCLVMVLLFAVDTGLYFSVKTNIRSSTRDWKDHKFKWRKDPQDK

B1: TG-1101 (TG Therapeutics, Inc.) (antibody, human IgG1, kappa)
heavy: not shown
light: QIVLSQSPAILSASPGEKVTMTCRASSSVSYMHWYQQKPGSSPKPWIYATSNLASGVPARFSGSGSGTSYSFTISRVEAEDAATYYCQQWTFNPPTFGGGTRLEIKRTVAAPSVFIFPPSDEQLKSGTASVVCLLNNFYPREAKVQWKVDNALQSGNSQESVTEQDSKDSTYSLSSTLTLSKADYEKHKVYACEVTHQGLSSPVTKSFNRGEC
notes: Chimeric IgG1 made in YB2/0 rat hybridoma cells, with low-fucose N-glycans; also called ublituximab; Ubli
Q: What does the source list for B1?
A: ADCC EC50 (Raji target cells, KILR CD16a effector cells) [1]: 0.00242 ng/mL; CDC EC50 (Jeko-1 cells, rabbit serum complement) [2]: 670 ng/mL; ADCC EC50, fold lower than OCREVUS [3]: ~25 fold; Kd [4]: 23 nM; Kd [5]: 158 nM; Kd [6]: 169 nM; Kd [7]: 92 nM; Kd [8]: 56 nM; Kd [9]: 42 nM; Kd [10]: 20 nM; EC50 [11]: 63 ng/mL; fold higher affinity than OCREVUS [12]: ~10 fold; fold higher affinity than OCREVUS [13]: ~15 fold; EC50 [14]: 0.00202 ng/mL; EC50 of ADCC assay Using Primary NK Cells (Raji target cells, LDH release) [15]: 49000 ng/mL; EC50 [16]: 983 ng/mL; EC50 (HRP conjugated human C1q [17]): 2600 ng/mL; EC50 (read off the curve) (HRP conjugated human C1q [18]): ~3000 ng/mL; Kd [19]: 680 nM; Kd [20]: 64.1 nM
